± gives the standard deviation of the averaged measurements.
How the values were obtained:
[1] = system: VchCAST RNA-guided transposition machinery (E. coli BL21(DE3) host, lacZ target); experiment: relative integration efficiency (T-RL orientation) vs wild-type transposon end (log2 (normalized fold change)); transposon end mutated: right end (5 bp flank + 75 bp right end); higher = more efficient transposition
Method in brief: (§1)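 Relative integration efficiency is a fold change of output over input barcode abundance, normalised to reference barcodes and log-transformed. Input plasmids and genomic integration junctions were PCR-amplified and Illumina-sequenced from E. coli BL21(DE3) co-transformed with a T7-driven effector plasmid and pUC57 donor pools of 1549 left-end or 1849 right-end transposon variants. Plating was done with 0.1 mM IPTG at 37°C for 18 h, with two biological output replicates and four reference barcodes.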

[2] = system: VchCAST RNA-guided transposition machinery (E. coli BL21(DE3) host, lacZ target); experiment: relative integration efficiency (T-LR orientation) vs wild-type transposon end (log2 (normalized fold change)); transposon end mutated: right end (5 bp flank + 75 bp right end); higher = more efficient transposition
Method in brief: as §1

## ACATTTGTTGATACAACCATAAAATGATAATTACACCCATAAAGGTCGCCGGCGACACAAACGCCCGGTCGCGGTAAGAGGATCATAGTCAGACCAACATTGCTACGACCCGTATTCGCACCGACAC
[1]
  relative integration efficiency (log2): -2.2 ± 0.37
[2]
  relative integration efficiency (log2): 0.613 ± 0.011

## ACATTTGTTGATACAACCATAAAATGATAATTACACCCATAAAGGTCTAATTATCACACCCATAAATTGATATTGCCTCTGATCATAGTCAGACCAACATTGCTACGACCCGTATTCGCACCGACAC
[1]
  relative integration efficiency (log2): -1.77 ± 0.13
[2]
  relative integration efficiency (log2): -1.72 ± 0.31

## ACATTTGTTGATACAACCATAAAATGATAATTACACCCATAAATACATAATTATCACACCCATAAATTGATATTGCCTCTGATCATAGTCAGACCAACATTGCTACGACCCGTATTCGCACCGACAC
[1]
  relative integration efficiency (log2): -0.763 ± 0.18
[2]
  relative integration efficiency (log2): -0.737 ± 0.026

## ACATTTGTTGATACAACCATAAAATGATAATTACACCCATAAATACTAAATTATCACACCCATAAATTGATATTGCCTCTGATCATAGTCAGACCAACATTGCTACGACCCGTATTCGCACCGACAC
[1]
  relative integration efficiency (log2): -1.56 ± 0.23
[2]
  relative integration efficiency (log2): -1.26 ± 0.24

## ACATTTGTTGATACAACCATAAAATGATAATTACACCCATAAATCTGAAATTATCACACCCATAAATTGATATTGCCTCTGATCATAGTCAGACCAACATTGCTACGACCCGTATTCGCACCGACAC
[1]
  relative integration efficiency (log2): -0.888 ± 0.057
[2]
  relative integration efficiency (log2): -1.08 ± 0.29

## ACATTTGTTGATACAACCATAAAATGATAATTACACCCATAAATGGATAATTATCACCCCCAATTTAACTATAACGCTCTGATCATAGTCAGACCAACATTGCTACGACCCGTATTCGCACCGACAC
[1]
  relative integration efficiency (log2): -1.3 ± 0.18
[2]
  relative integration efficiency (log2): 1.64 ± 0.048

## ACATTTGTTGATACAACCATAAAATGATAATTACACCCATAAATGGATCATTATCACACCCAATTTAACTATAACGCTCTGATCATAGTCAGACCAACATTGCTACGACCCGTATTCGCACCGACAC
[1]
  relative integration efficiency (log2): -1.63 ± 0.33
[2]
  relative integration efficiency (log2): 1.07 ± 0.2

## ACATTTGTTGATACAACCATAAAATGATAATTACACCCATAAATGGATCATTATCACCCCCAATTTAACTATAACGCTCTGATCATAGTCAGACCAACATTGCTACGACCCGTATTCGCACCGACAC
[1]
  relative integration efficiency (log2): -1.44 ± 0.18
[2]
  relative integration efficiency (log2): 1.15 ± 0.28

## ACATTTGTTGATACAACCATAAAATGATAATTACACCCATAAATGGATTATTATCACACCCAATTTAACTATAACGCTCTGATCATAGTCAGACCAACATTGCTACGACCCGTATTCGCACCGACAC
[1]
  relative integration efficiency (log2): -1.59 ± 0.23
[2]
  relative integration efficiency (log2): 0.865 ± 0.44

## ACATTTGTTGATACAACCATAAAATGATAATTACACCCATAAATGTATAATTATCACACCCATAAATTGATATTGCCTCTGATCATAGTCAGACCAACATTGCTACGACCCGTATTCGCACCGACAC
[1]
  relative integration efficiency (log2): -0.553 ± 0.026
[2]
  relative integration efficiency (log2): -1.04 ± 0.38

## ACATTTGTTGATACAACCATAAAATGATAATTACACCCATAAATGTCGAATTATCACACCCATAAATTGATATTGCCTCTGATCATAGTCAGACCAACATTGCTACGACCCGTATTCGCACCGACAC
[1]
  relative integration efficiency (log2): -1.83 ± 0.081
[2]
  relative integration efficiency (log2): -2.54 ± 0.58

## ACATTTGTTGATACAACCATAAAATGATAATTACACCCATAAATGTCGCCGGCGACACAAACGCCCGGTCGCGGTAAGAGGATCATAGTCAGACCAACATTGCTACGACCCGTATTCGCACCGACAC
[1]
  relative integration efficiency (log2): -1.73 ± 0.3
[2]
  relative integration efficiency (log2): 1 ± 0.17

## ACATTTGTTGATACAACCATAAAATGATAATTACACCCATAAATTCATAATTATCACCCCCAATTTAACTATAACGCTCTGATCATAGTCAGACCAACATTGCTACGACCCGTATTCGCACCGACAC
[1]
  relative integration efficiency (log2): -1.95 ± 0.33
[2]
  relative integration efficiency (log2): 1.06 ± 0.079

## ACATTTGTTGATACAACCATAAAATGATAATTACACCCATAAATTCATCATTATCACACCCAATTTAACTATAACGCTCTGATCATAGTCAGACCAACATTGCTACGACCCGTATTCGCACCGACAC
[1]
  relative integration efficiency (log2): -2.36 ± 0.48
[2]
  relative integration efficiency (log2): 1.42 ± 0.023

## ACATTTGTTGATACAACCATAAAATGATAATTACACCCATAAATTCATCATTATCACCCCCAATTTAACTATAACGCTCTGATCATAGTCAGACCAACATTGCTACGACCCGTATTCGCACCGACAC
[1]
  relative integration efficiency (log2): -1.8 ± 0.25
[2]
  relative integration efficiency (log2): 1.45 ± 0.16

## ACATTTGTTGATACAACCATAAAATGATAATTACACCCATAAATTCATTATTATCACACCCAATTTAACTATAACGCTCTGATCATAGTCAGACCAACATTGCTACGACCCGTATTCGCACCGACAC
[1]
  relative integration efficiency (log2): -2.74 ± 0.49
[2]
  relative integration efficiency (log2): 0.845 ± 0.28

## ACATTTGTTGATACAACCATAAAATGATAATTACACCCATAAATTCTATATTATCACACCCATAAATTGATATTGCCTCTGATCATAGTCAGACCAACATTGCTACGACCCGTATTCGCACCGACAC
[1]
  relative integration efficiency (log2): -2.002 ± 0.013
[2]
  relative integration efficiency (log2): -0.688 ± 0.11

## ACATTTGTTGATACAACCATAAAATGATAATTACACCCATAAATTCTTAATTATCACACCCATAAATTGATATTGCCTCTGATCATAGTCAGACCAACATTGCTACGACCCGTATTCGCACCGACAC
[1]
  relative integration efficiency (log2): -1.43 ± 0.18
[2]
  relative integration efficiency (log2): -1.33 ± 0.28

## ACATTTGTTGATACAACCATAAAATGATAATTACACCCATAAATTGAATATTATCACACCCATAAATTGATATTGCCTCTGATCATAGTCAGACCAACATTGCTACGACCCGTATTCGCACCGACAC
[1]
  relative integration efficiency (log2): -1.1 ± 0.27
[2]
  relative integration efficiency (log2): -0.409 ± 0.19

## ACATTTGTTGATACAACCATAAAATGATAATTACACCCATAAATTGAATTATATCACACCCATAAATTGATATTGCCTCTGATCATAGTCAGACCAACATTGCTACGACCCGTATTCGCACCGACAC
[1]
  relative integration efficiency (log2): -1.65 ± 0.026
[2]
  relative integration efficiency (log2): -0.447 ± 0.17

## ACATTTGTTGATACAACCATAAAATGATAATTACACCCATAAATTGAGCATTATCACACCCATAAATTGATATTGCCTCTGATCATAGTCAGACCAACATTGCTACGACCCGTATTCGCACCGACAC
[1]
  relative integration efficiency (log2): -0.525 ± 0.0063
[2]
  relative integration efficiency (log2): -0.422 ± 0.13

## ACATTTGTTGATACAACCATAAAATGATAATTACACCCATAAATTGAGCCGGCGACACAAACGCCCGGTCGCGGTAAGAGGATCATAGTCAGACCAACATTGCTACGACCCGTATTCGCACCGACAC
[1]
  relative integration efficiency (log2): -1.02 ± 0.23
[2]
  relative integration efficiency (log2): 1.83 ± 0.037

## ACATTTGTTGATACAACCATAAAATGATAATTACACCCATAAATTGAGCCGTATCACACCCATAAATTGATATTGCCTCTGATCATAGTCAGACCAACATTGCTACGACCCGTATTCGCACCGACAC
[1]
  relative integration efficiency (log2): -1.03 ± 0.093
[2]
  relative integration efficiency (log2): -1.21 ± 0.12

## ACATTTGTTGATACAACCATAAAATGATAATTACACCCATAAATTGATAAAAATCACACCCATAAATTGATATTGCCTCTGATCATAGTCAGACCAACATTGCTACGACCCGTATTCGCACCGACAC
[1]
  relative integration efficiency (log2): -0.355 ± 0.081
[2]
  relative integration efficiency (log2): 0.324 ± 0.4

## ACATTTGTTGATACAACCATAAAATGATAATTACACCCATAAATTGATAAAATACACACCCATAAATTGATATTGCCTCTGATCATAGTCAGACCAACATTGCTACGACCCGTATTCGCACCGACAC
[1]
  relative integration efficiency (log2): -0.37 ± 0.071
[2]
  relative integration efficiency (log2): -0.0186 ± 0.38

## ACATTTGTTGATACAACCATAAAATGATAATTACACCCATAAATTGATAAGGATCACACCCATAAATTGATATTGCCTCTGATCATAGTCAGACCAACATTGCTACGACCCGTATTCGCACCGACAC
[1]
  relative integration efficiency (log2): -0.665 ± 0.083
[2]
  relative integration efficiency (log2): -0.0336 ± 0.22

## ACATTTGTTGATACAACCATAAAATGATAATTACACCCATAAATTGATAAGGCGACACAAACGCCCGGTCGCGGTAAGAGGATCATAGTCAGACCAACATTGCTACGACCCGTATTCGCACCGACAC
[1]
  relative integration efficiency (log2): -0.882 ± 0.14
[2]
  relative integration efficiency (log2): 2.27 ± 0.23

## ACATTTGTTGATACAACCATAAAATGATAATTACACCCATAAATTGATAAGGCGCACACCCATAAATTGATATTGCCTCTGATCATAGTCAGACCAACATTGCTACGACCCGTATTCGCACCGACAC
[1]
  relative integration efficiency (log2): -0.436 ± 0.083
[2]
  relative integration efficiency (log2): -0.0146 ± 0.0051

## ACATTTGTTGATACAACCATAAAATGATAATTACACCCATAAATTGATAATAATGACACCGAATTTAACTATAACGCTCTGATCATAGTCAGACCAACATTGCTACGACCCGTATTCGCACCGACAC
[1]
  relative integration efficiency (log2): 1.54 ± 0.64
[2]
  relative integration efficiency (log2): 5.35 ± 0.24

## ACATTTGTTGATACAACCATAAAATGATAATTACACCCATAAATTGATAATATAGACACCCATAAATTGATATTGCCTCTGATCATAGTCAGACCAACATTGCTACGACCCGTATTCGCACCGACAC
[1]
  relative integration efficiency (log2): -0.321 ± 0.15
[2]
  relative integration efficiency (log2): -0.0877 ± 0.52

## ACATTTGTTGATACAACCATAAAATGATAATTACACCCATAAATTGATAATATTCACACCCATAAATTGATATTGCCTCTGATCATAGTCAGACCAACATTGCTACGACCCGTATTCGCACCGACAC
[1]
  relative integration efficiency (log2): -0.274 ± 0.23
[2]
  relative integration efficiency (log2): -0.107 ± 0.095

## ACATTTGTTGATACAACCATAAAATGATAATTACACCCATAAATTGATAATCACACCCATAAATTGATATTGCCTCTGATCATAGTCAGACCAACATTGCTACGACCCGTATTCGCACCGACACTGA
[1]
  relative integration efficiency (log2): -1.32 ± 0.31
[2]
  relative integration efficiency (log2): 1.82 ± 0.057

## ACATTTGTTGATACAACCATAAAATGATAATTACACCCATAAATTGATAATGATGACACCGAATTTAACTATAACGCTCTGATCATAGTCAGACCAACATTGCTACGACCCGTATTCGCACCGACAC
[1]
  relative integration efficiency (log2): -1.34 ± 0.27
[2]
  relative integration efficiency (log2): 2.06 ± 0.097

## ACATTTGTTGATACAACCATAAAATGATAATTACACCCATAAATTGATAATGCGAACACCCATAAATTGATATTGCCTCTGATCATAGTCAGACCAACATTGCTACGACCCGTATTCGCACCGACAC
[1]
  relative integration efficiency (log2): -0.292 ± 0.045
[2]
  relative integration efficiency (log2): 0.16 ± 0.083

## ACATTTGTTGATACAACCATAAAATGATAATTACACCCATAAATTGATAATGCGACACAAACGCCCGGTCGCGGTAAGAGGATCATAGTCAGACCAACATTGCTACGACCCGTATTCGCACCGACAC
[1]
  relative integration efficiency (log2): -0.485 ± 0.11
[2]
  relative integration efficiency (log2): 2.69 ± 0.1

— the supplement of paper PMC10201428
